# pKd: −log10 of the molar value.
# Key:
# [1] = target: C-terminal SH2 domain of PI3K regulatory subunit 1 (UniProt P27986); assay: FP
# [2] = target: N-terminal SH2 domain of PI3K regulatory subunit 1 (UniProt P27986); assay: FP
# Chain of N-terminal SH2 domain of PI3K regulatory subunit 1 (P27986 321-433): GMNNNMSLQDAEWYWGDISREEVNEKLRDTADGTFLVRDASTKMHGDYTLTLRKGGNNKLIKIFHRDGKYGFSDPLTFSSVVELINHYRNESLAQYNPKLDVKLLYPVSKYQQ
# Chain of C-terminal SH2 domain of PI3K regulatory subunit 1 (P27986 614-724): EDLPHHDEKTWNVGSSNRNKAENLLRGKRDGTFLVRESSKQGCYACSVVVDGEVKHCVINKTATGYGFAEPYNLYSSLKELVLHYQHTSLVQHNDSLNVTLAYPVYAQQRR
pKd [1],pKd [2],Substance
5.19,4.27,phospho-meta-Tyr IRS-1 peptide GRKGSGD(pY)MPMSPKV
< 4.40,< 3.82,phospho-ortho-Tyr IRS-1 peptide GRKGSGD(pY)MPMSPKV

# Source: paper PMC9138545, “Incorporation of Oxidized Phenylalanine Derivatives into Insulin Signaling Relevant Proteins May Link Oxidative Stress to Signaling Conditions Underlying Chronic Insulin Resistance” (Biomedicines, 2022)
